This assay concerns the target Recombinant human Tau-40 protein (human) (UniProt P10636). In words: solution binding assay, then SDS-PAGE and western blotting; 1 µg tau and 1 µg recombinant apoE incubated 1 h at 37 °C in 20 µl PBS (pH 7.4); ended with sample buffer without 2-mercaptoethanol, boiled 5 min; immunoblot for tau (HT7) and apoE. On the technique in general: A western blot detects proteins with antibodies after separation by electrophoresis.

Sequence of Recombinant human Tau-40 protein (human) (P10636 other isoform, or with tags, fused parts or gaps): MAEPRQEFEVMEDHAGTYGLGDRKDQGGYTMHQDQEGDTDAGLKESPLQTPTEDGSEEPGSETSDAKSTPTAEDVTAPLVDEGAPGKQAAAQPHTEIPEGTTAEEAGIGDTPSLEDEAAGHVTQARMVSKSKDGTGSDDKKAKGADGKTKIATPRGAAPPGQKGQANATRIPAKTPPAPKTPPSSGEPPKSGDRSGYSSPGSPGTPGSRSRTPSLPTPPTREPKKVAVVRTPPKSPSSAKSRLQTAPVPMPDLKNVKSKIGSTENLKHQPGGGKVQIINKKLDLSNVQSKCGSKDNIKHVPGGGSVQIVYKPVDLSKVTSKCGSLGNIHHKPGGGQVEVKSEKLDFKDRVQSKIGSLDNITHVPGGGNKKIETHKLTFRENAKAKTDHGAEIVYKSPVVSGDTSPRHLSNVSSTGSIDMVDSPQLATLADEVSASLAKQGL

Regarding “Recombinant human apoE2 protein (from UniProt P02649 19-317) (natural protein)”, the N of band A was 2 tau per apoE and the N of band B stood at 2 apoE per tau.

The values are drawn from article PMC6197187.
